Consider 1 substance from patent US20090104178A1.

Holding throughout (experiment): SPR (BIAcore X), E12 thiol-coupled to the chip, chemokine injected
For orientation: In SPR one partner is held on a chip, and binding of the other changes the refractive index at the surface.

For assay [1], the target named is mCXCL11 (mouse) (UniProt Q9JHH5).
Assay [2] concerns the target mCCL21 (mouse) (UniProt P84444).
The target in assay [3] is mCCL25 (mouse) (UniProt O35903).
Assay [4] has as its target mCXCL13 (mouse) (UniProt O55038).
The target of assay [5] is mCCL27 (mouse) (UniProt Q9Z1X0).
Sequence of mCCL27 (mouse) (Q9Z1X0 26-120 limits assumed): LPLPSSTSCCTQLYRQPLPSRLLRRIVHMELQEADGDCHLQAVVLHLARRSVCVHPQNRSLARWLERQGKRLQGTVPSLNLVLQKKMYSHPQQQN
In assay [6] the target is mCXCL14 (mouse) (UniProt Q9WUQ5).
Sequence of mCXCL14 (mouse) (Q9WUQ5 23-99 limits assumed): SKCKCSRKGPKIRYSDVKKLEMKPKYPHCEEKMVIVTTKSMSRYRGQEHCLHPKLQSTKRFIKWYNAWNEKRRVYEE

For orientation: Kd means a measure of binding affinity in units of concentration.

Sequence of mCCL21 (mouse) (P84444 24-133): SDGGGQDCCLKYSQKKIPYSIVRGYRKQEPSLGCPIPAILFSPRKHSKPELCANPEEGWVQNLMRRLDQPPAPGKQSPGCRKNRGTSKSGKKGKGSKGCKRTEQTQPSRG
Sequence of mCXCL11 (mouse) (Q9JHH5 22-100 limits assumed): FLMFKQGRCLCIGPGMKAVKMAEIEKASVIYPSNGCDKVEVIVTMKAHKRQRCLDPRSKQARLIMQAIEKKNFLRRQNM
Sequence of mCXCL13 (mouse) (O55038 22-109 limits assumed): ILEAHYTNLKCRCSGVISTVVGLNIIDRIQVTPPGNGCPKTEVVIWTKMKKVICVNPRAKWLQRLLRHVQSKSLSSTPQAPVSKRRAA
Sequence of mCCL25 (mouse) (O35903 24-144 limits assumed): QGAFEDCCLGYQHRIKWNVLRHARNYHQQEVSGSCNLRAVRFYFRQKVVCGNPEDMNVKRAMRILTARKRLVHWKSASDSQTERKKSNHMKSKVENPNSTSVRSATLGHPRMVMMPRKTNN

As for Purified EV E12 protein, the equilibrium dissociation constant (Kd) came out at 1 nM in assay [1]; 0.5 nM in assay [2]; 0.7 nM in assay [3]; 1.5 nM in assay [4]; 2 nM in assay [5]; 1.5 nM in assay [6].
